Reference: US20230203107A1, “PEPTIDE FOR TREATING SEPSIS DERIVED FROM RV3364C PROTEIN OF MYCOBACTERIUM TUBERCULOSIS” (priority 2021, published 2023)

Target: T1, SNX9 BAR domain (Homo sapiens, UniProt Q9Y5X1)
T1 construct: different regions 1-595, 1-250, 250-361, and 392-595 of SNX9; expressed in transfected cells; host or cells: 293T (pEF-IRES-Puro expression vector)
Type: cell-based

T1 sequence (Q9Y5X1 392-595): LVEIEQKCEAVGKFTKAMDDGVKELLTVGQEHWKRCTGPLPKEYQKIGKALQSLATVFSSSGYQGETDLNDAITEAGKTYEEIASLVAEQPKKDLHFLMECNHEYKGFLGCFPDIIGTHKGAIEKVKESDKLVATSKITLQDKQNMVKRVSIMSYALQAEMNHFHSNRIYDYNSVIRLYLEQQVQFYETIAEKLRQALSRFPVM

With “Rv3364c: Rv3364c protein of Mycobacterium tuberculosis, expressed in 293T cells from a Flag-tagged plasmid” the “domain of SNX9 interacting with Rv3364c” value was “interacted with SNX9 through a Bin-Amphiphysin-Rvs (BAR) domain”.
